{"source": "paper PMC2654577", "experiment_in_all_cases": "enzyme inhibition kinetics", "key": {"[1]": {"molecular_target": "factor XIa catalytic domain R171A (human) (UniProt P03951)"}, "[2]": {"molecular_target": "full-length factor XIa autolysis loop variant fXIa-144-149A (human)"}, "[3]": {"molecular_target": "factor XIa catalytic domain R173A (human) (UniProt P03951)"}, "[4]": {"molecular_target": "factor XIa catalytic domain K179A (human)"}, "[5]": {"molecular_target": "factor XIa catalytic domain K170A (human) (UniProt P03951)"}}, "data": [{"binder": "C1-inhibitor (natural protein) NPNATSSSSQDPESLQDRGEGKVATTVISKMLFVEPILEVSSLPTTNSTTNSATKITANTTDEPTTQPTTEPTTQPTIQPTQPTTQLPTDSPTQPTTGSFCPGPVTLCSDLESHSTEAVLGDALVDFSLKLYHAFSAMKKVETNMAFSPFSIASLLTQVLLGAGENTKTNLESILSYPKDFTCVHQALKGFTTKGVTSVSQIFHSPDLAIRDTFVNASRTLYSSSPRVLSNNSDANLELINTWVAKNTNNKISRLLDSLPSDTRLVLLNAIYLSAKWKTTFDPKKTRMEPFHFKNSVIKVPMMNSKKYPVAHFIDQTLKAKVGQLQLSHNLSLVILVPQNLKHRLEDMEQALSPSVFKAIMEKLEMSKFQPTLLTLPRIKVTTSQDMLSIMEKLEFFDFSYDLNLCGLTEDPDLQVSAMQHQTVLELTETGVEAAAASAISVARTLLVFEVQQPFLFVLWDQQHKFPVFMGRVYDPRA", "values": [{"measurement": "k2 (second-order inhibition rate constant)", "setting": "[1]", "value": 600, "unit": "M⁻¹ s⁻¹"}, {"measurement": "k2 (second-order inhibition rate constant)", "setting": "[2]", "value": 19200, "unit": "M⁻¹ s⁻¹"}, {"measurement": "k2 (second-order inhibition rate constant)", "setting": "[3]", "value": 1300, "unit": "M⁻¹ s⁻¹"}, {"measurement": "k2 (second-order inhibition rate constant)", "setting": "[4]", "value": 1100, "unit": "M⁻¹ s⁻¹"}, {"measurement": "k2 (second-order inhibition rate constant)", "setting": "[5]", "value": 1200, "unit": "M⁻¹ s⁻¹"}]}]}
